In the assay the target is DDAGNRQP-fused pVIII protein (phage fd (fd-tet)) (UniProt P69539). Description: tricine-SDS-PAGE.

The stoichiometry N is a count of units in the complex or per binding partner.

“DDAGNRQP-fused pVIII protein (from UniProt P69539 24-73)” registered a stoichiometry N of 2.

The values above are taken from publication PMC4210868.
